As a reminder, the Kd is the free concentration of one partner at which half of the binding sites on the other are occupied at equilibrium, for simple one-to-one binding.

Data on seven molecules can be found in patent US20220411483A1 (Chugai, published 2022).

Assay [1] has as its target T1, human FcγRIIa H type extracellular domain with C-terminal His tag (human, UniProt P12318 34-217).
T1 construct: extracellular domain; also called FcgRIIaH
T1 sequence (looked up): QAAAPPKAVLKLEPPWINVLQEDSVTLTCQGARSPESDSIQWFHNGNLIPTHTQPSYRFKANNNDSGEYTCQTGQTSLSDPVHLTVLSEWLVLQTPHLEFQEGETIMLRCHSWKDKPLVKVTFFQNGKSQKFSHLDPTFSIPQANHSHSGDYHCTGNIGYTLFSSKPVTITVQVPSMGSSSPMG
Nature of the assay: SPR, KD of IL6R-G1d/IL6R-L divided by KD of variant.

Assay [2] has as its target T2, human FcγRIa extracellular domain with C-terminal His tag (human, UniProt P12314 16-292).
T2 construct: Whole entry named; also called FcgRIa
The assay is described as above.

For assay [3], the target named is T3, human FcγRIIb extracellular domain with C-terminal His tag (human, UniProt P31994 43-217).
T3 construct: extracellular domain; also called FcgRIIb
T3 sequence (looked up): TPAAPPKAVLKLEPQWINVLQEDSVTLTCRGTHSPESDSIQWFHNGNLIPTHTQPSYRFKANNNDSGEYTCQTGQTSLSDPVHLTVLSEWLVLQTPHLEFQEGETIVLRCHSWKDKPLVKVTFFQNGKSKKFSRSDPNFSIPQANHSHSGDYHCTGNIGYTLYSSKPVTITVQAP
Described as above.

Assay [4] addresses T4, human FcγRIIa R type extracellular domain with C-terminal His tag (human, UniProt P12318 34-217).
T4 construct: extracellular domain; also called FcgRIIaR
T4 sequence (looked up): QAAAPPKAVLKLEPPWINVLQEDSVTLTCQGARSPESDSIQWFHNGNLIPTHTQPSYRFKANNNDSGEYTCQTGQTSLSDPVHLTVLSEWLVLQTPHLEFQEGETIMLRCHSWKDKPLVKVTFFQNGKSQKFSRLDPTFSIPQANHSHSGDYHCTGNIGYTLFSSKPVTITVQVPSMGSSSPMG
The description is as above.

The target of assay [5] is T5, human FcγRIIIa V type extracellular domain with C-terminal His tag (human, UniProt P08637 17-208).
T5 construct: extracellular domain; also called FcgRIIIaV
T5 sequence (P08637 17-208 F176V): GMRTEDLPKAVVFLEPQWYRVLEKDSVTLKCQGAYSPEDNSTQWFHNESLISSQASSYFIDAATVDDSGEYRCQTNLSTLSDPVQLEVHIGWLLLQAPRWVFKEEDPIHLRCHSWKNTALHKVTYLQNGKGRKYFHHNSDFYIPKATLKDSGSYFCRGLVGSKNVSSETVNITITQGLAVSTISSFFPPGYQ
The description is as above.

Assay [6] has as its target T2, human FcγRIa extracellular domain with …. Nature of the assay: SPR, antibody captured, FcgR analyte. (In general: Surface plasmon resonance follows binding to a sensor surface in real time, without labels.)
The target of assay [7] is T3, human FcγRIIb extracellular domain with …. Nature of the assay: SPR, antibody captured, FcgR analyte.
Assay [8] addresses T4, human FcγRIIa R type extracellular …. Nature of the assay: SPR, antibody captured, FcgR analyte.

T2 sequence (P12314 16-292): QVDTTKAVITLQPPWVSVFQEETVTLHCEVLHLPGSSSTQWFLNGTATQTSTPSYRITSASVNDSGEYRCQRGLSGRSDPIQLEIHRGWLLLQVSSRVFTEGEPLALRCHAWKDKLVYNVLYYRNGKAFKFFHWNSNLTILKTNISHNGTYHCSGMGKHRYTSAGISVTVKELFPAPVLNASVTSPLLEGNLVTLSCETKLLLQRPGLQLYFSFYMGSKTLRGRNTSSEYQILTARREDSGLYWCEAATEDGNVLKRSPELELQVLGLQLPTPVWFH

B1: IL6R-P750/IL6R-L (antibody, human IgG1, kappa)
heavy: QVQLQESGPGLVKPSETLSLTCAVSGHSISHDHAWSWVRQPPGEGLEWIGFISYSGITNYNPSLQGRVTISRDNSKNTLYLQMNSLRAEDTAVYYCARSLARTTAMDYWGEGTLVTVSSASTKGPSVFPLAPSSKSTSGGTAALGCLVKDYFPEPVTVSWNSGALTSGVHTFPAVLQSSGLYSLSSVVTVPSSSLGTQTYICNVNHKPSNTKVDKKVEPKSCDKTHTCPPCPAPELFGQDSVMLFPPKPKDTLMISRTPEVTCVVVDVSPEDPEVKFNWYVDGVEVHNAKTKPREEQENSTYRVVSVLTVLHQDWLNGKEYKCAVSNKALPAPIEKTISKAKGQPREPQVYTLPPSRDELTKNQVSLTCLVKGFYPSDIAVEWESNGQPENNYKTTPPVLDSDGSFFLYSKLTVDKSRWQQGNVFSCSVMHEALHNHYTQKSLSLSP
light: not shown
With B1, in assay [1], the “Relative FcgRIIaH-binding Activity” value was determined as 0.013. In addition, the “Relative FcgRIa-binding Activity” value in assay [2] turned out to be 0.001. Besides, in assay [3], the “Relative FcgRIIb-binding Activity” value came to 0.5. The “Relative FcgRIIaR-binding Activity” value in assay [4] amounted to 0.02. The “Relative FcgRIIIaV-binding Activity” value in assay [5] was found to be 0.006. In addition, the Kd worked out at 0.23 µM in assay [6], 4 µM in assay [7] and 49 µM in assay [8].

B2: IL6R-P756/IL6R-L (antibody, human IgG1, kappa)
heavy: QVQLQESGPGLVKPSETLSLTCAVSGHSISHDHAWSWVRQPPGEGLEWIGFISYSGITNYNPSLQGRVTISRDNSKNTLYLQMNSLRAEDTAVYYCARSLARTTAMDYWGEGTLVTVSSASTKGPSVFPLAPSSKSTSGGTAALGCLVKDYFPEPVTVSWNSGALTSGVHTFPAVLQSSGLYSLSSVVTVPSSSLGTQTYICNVNHKPSNTKVDKKVEPKSCDKTHTCPPCPAPDLLGGDSVFLFPPKPKDTLMISRTPEVTCVVIDVAEEDGEVKFNWYVDGVEVHNAKTKPREEQYNSTYRVVSVLTVLHQDWLNGKEYKCKVSNKGLPSSIEKTISKAKGQPREPQVYTLPPSRDELTKNQVSLTCLVKGFYPSDIAVEWESNGQPENNYKTTPPVLDSDGSFFLYSKLTVDKSRWQQGNVFSCSVMHEALHNHYTQKSLSLSP
light: not shown
For B2, the “Relative FcgRIIaH-binding Activity” value in assay [1] came out at 0.03. In assay [2], the “Relative FcgRIa-binding Activity” value came out at 0.291. The “Relative FcgRIIb-binding Activity” value in assay [3] stood at 40.4. In addition, the “Relative FcgRIIaR-binding Activity” value in assay [4] is 0.65. Moreover, the “Relative FcgRIIIaV-binding Activity” value in assay [5] turned out to be 0.007. The values for the Kd in assay [6], in assay [7] and in assay [8] were 0.0011 µM, 0.052 µM and 1.7 µM, respectively.

B3: IL6R-P751/IL6R-L (antibody, human IgG1, kappa)
heavy: QVQLQESGPGLVKPSETLSLTCAVSGHSISHDHAWSWVRQPPGEGLEWIGFISYSGITNYNPSLQGRVTISRDNSKNTLYLQMNSLRAEDTAVYYCARSLARTTAMDYWGEGTLVTVSSASTKGPSVFPLAPSSKSTSGGTAALGCLVKDYFPEPVTVSWNSGALTSGVHTFPAVLQSSGLYSLSSVVTVPSSSLGTQTYICNVNHKPSNTKVDKKVEPKSCDKTHTCPPCPAPELFGQDSVMLFPPKPKDTLMISRTPEVTCVVVDVSPEDPEVKFNWYVDGVEVHNAKTKPREEQENSTYRVVSVLTVLHQDWLNGKEYKCEVSNKALPAPIEKTISKAKGQPREPQVYTLPPSRDELTKNQVSLTCLVKGFYPSDIAVEWESNGQPENNYKTTPPVLDSDGSFFLYSKLTVDKSRWQQGNVFSCSVMHEALHNHYTQKSLSLSP
light: not shown
For the molecule B3, the “Relative FcgRIIaH-binding Activity” value in assay [1] is 0.013. Moreover, the “Relative FcgRIa-binding Activity” value in assay [2] stood at 0.001. Further, the “Relative FcgRIIb-binding Activity” value in assay [3] turned out to be 0.6. For the same molecule, the “Relative FcgRIIaR-binding Activity” value in assay [4] was determined as 0.06. The “Relative FcgRIIIaV-binding Activity” value in assay [5] worked out at 0.007. Further, the Kd in assay [6] was found to be 0.24 µM; in assay [7], 3.5 µM; in assay [8], 19 µM.

B4: IL6R-P752/IL6R-L (antibody, human IgG1, kappa)
heavy: QVQLQESGPGLVKPSETLSLTCAVSGHSISHDHAWSWVRQPPGEGLEWIGFISYSGITNYNPSLQGRVTISRDNSKNTLYLQMNSLRAEDTAVYYCARSLARTTAMDYWGEGTLVTVSSASTKGPSVFPLAPSSKSTSGGTAALGCLVKDYFPEPVTVSWNSGALTSGVHTFPAVLQSSGLYSLSSVVTVPSSSLGTQTYICNVNHKPSNTKVDKKVEPKSCDKTHTCPPCPAPELFGQDSVMLFPPKPKDTLMISRTPEVTCVVVDVSPEDPEVKFNWYVDGVEVHNAKTKPREEQENSTYRVVSVLTVLHQDWLNGKEYKCAVHNKALPAPIEKTISKAKGQPREPQVYTLPPSRDELTKNQVSLTCLVKGFYPSDIAVEWESNGQPENNYKTTPPVLDSDGSFFLYSKLTVDKSRWQQGNVFSCSVMHEALHNHYTQKSLSLSP
light: not shown
In the case of B4, the “Relative FcgRIIaH-binding Activity” value in assay [1] was found to be 0.013. Also, the “Relative FcgRIa-binding Activity” value in assay [2] worked out at 0.002. Besides, in assay [3], the “Relative FcgRIIb-binding Activity” value was 0.5. For the same molecule, the “Relative FcgRIIaR-binding Activity” value in assay [4] worked out at 0.03. Moreover, in assay [5], the “Relative FcgRIIIaV-binding Activity” value worked out at 0.006. In addition, the figures for the Kd in assay [6], in assay [7] and in assay [8] were 0.15 µM, 4.2 µM and 41 µM, respectively.

B5: IL6R-P754/IL6R-L (antibody, human IgG1, kappa)
heavy: QVQLQESGPGLVKPSETLSLTCAVSGHSISHDHAWSWVRQPPGEGLEWIGFISYSGITNYNPSLQGRVTISRDNSKNTLYLQMNSLRAEDTAVYYCARSLARTTAMDYWGEGTLVTVSSASTKGPSVFPLAPSSKSTSGGTAALGCLVKDYFPEPVTVSWNSGALTSGVHTFPAVLQSSGLYSLSSVVTVPSSSLGTQTYICNVNHKPSNTKVDKKVEPKSCDKTHTCPPCPAPELLGQDSVMLFPPKPKDTLMISRTPEVTCVVVDVSPEDPEVKFNWYVDGVEVHNAKTKPREEQENSTYRVVSVLTVLHQDWLNGKEYKCAVHNKALPHPIEKTISKAKGQPREPQVYTLPPSRDELTKNQVSLTCLVKGFYPSDIAVEWESNGQPENNYKTTPPVLDSDGSFFLYSKLTVDKSRWQQGNVFSCSVMHEALHNHYTQKSLSLSP
light: not shown
Consider B5, for which, in assay [1], the “Relative FcgRIIaH-binding Activity” value was determined as 0.003. Moreover, the “Relative FcgRIa-binding Activity” value in assay [2] came to 0.002. In addition, the “Relative FcgRIIb-binding Activity” value in assay [3] came to 0.3. Besides, the “Relative FcgRIIaR-binding Activity” value in assay [4] is 0.11. Further, in assay [5], the “Relative FcgRIIIaV-binding Activity” value was found to be 0.004. For the same molecule, the figures for the Kd in assay [6], in assay [7] and in assay [8] were 0.19 µM, 7.7 µM and 10 µM, respectively.

B6: IL6R-P753/IL6R-L (antibody, human IgG1, kappa)
heavy: QVQLQESGPGLVKPSETLSLTCAVSGHSISHDHAWSWVRQPPGEGLEWIGFISYSGITNYNPSLQGRVTISRDNSKNTLYLQMNSLRAEDTAVYYCARSLARTTAMDYWGEGTLVTVSSASTKGPSVFPLAPSSKSTSGGTAALGCLVKDYFPEPVTVSWNSGALTSGVHTFPAVLQSSGLYSLSSVVTVPSSSLGTQTYICNVNHKPSNTKVDKKVEPKSCDKTHTCPPCPAPELFGQDSVMLFPPKPKDTLMISRTPEVTCVVVDVSPEDPEVKFNWYVDGVEVHNAKTKPREEQENSTYRVVSVLTVLHQDWLNGKEYKCEVHNKALPAPIEKTISKAKGQPREPQVYTLPPSRDELTKNQVSLTCLVKGFYPSDIAVEWESNGQPENNYKTTPPVLDSDGSFFLYSKLTVDKSRWQQGNVFSCSVMHEALHNHYTQKSLSLSP
light: not shown
As for B6, the “Relative FcgRIIaH-binding Activity” value in assay [1] is 0.014. Besides, the “Relative FcgRIa-binding Activity” value in assay [2] is 0.003. Besides, the “Relative FcgRIIb-binding Activity” value in assay [3] came out at 0.8. In addition, the “Relative FcgRIIaR-binding Activity” value in assay [4] was determined as 0.06. Also, the “Relative FcgRIIIaV-binding Activity” value in assay [5] amounted to 0.007. Further, the Kd in assay [6] worked out at 0.11 µM; in assay [7], 2.8 µM; in assay [8], 18 µM.

B7: IL6R-P755/IL6R-L (antibody, human IgG1, kappa)
heavy: QVQLQESGPGLVKPSETLSLTCAVSGHSISHDHAWSWVRQPPGEGLEWIGFISYSGITNYNPSLQGRVTISRDNSKNTLYLQMNSLRAEDTAVYYCARSLARTTAMDYWGEGTLVTVSSASTKGPSVFPLAPSSKSTSGGTAALGCLVKDYFPEPVTVSWNSGALTSGVHTFPAVLQSSGLYSLSSVVTVPSSSLGTQTYICNVNHKPSNTKVDKKVEPKSCDKTHTCPPCPAPELLGQDSVMLFPPKPKDTLMISRTPEVTCVVVDVSPEDPEVKFNWYVDGVEVHNAKTKPREEQENSTYRVVSVLTVLHQDWLNGKEYKCEVHNKALPHPIEKTISKAKGQPREPQVYTLPPSRDELTKNQVSLTCLVKGFYPSDIAVEWESNGQPENNYKTTPPVLDSDGSFFLYSKLTVDKSRWQQGNVFSCSVMHEALHNHYTQKSLSLSP
light: not shown
For B7, in assay [1], the “Relative FcgRIIaH-binding Activity” value amounted to 0.005. The “Relative FcgRIa-binding Activity” value in assay [2] is 0.004. Further, the “Relative FcgRIIb-binding Activity” value in assay [3] was determined as 0.5. Moreover, the “Relative FcgRIIaR-binding Activity” value in assay [4] came to 0.06. In addition, in assay [5], the “Relative FcgRIIIaV-binding Activity” value amounted to 0.005. Also, the Kd stood at 0.085 µM in assay [6], 4.1 µM in assay [7] and 17 µM in assay [8].
